# Patent US20050106100
# T1: Ac-PLG˜LYT-Ahxh-Hynic (not fully specified)
# T1 chain: PLGLYT
# T2: Ac-PLG˜Hphe-YLA-Ahxh-Hynic
# T2 chain: PLGXYLA
# T3: Ac-PLG˜Hphe-YL-Ahxh-Hynic (not fully specified)
# T3 chain: PLGXYL
# T4: Ac-PL-NLys˜Hphe-RL-Ahxh-Ac[C14] (not fully specified)
# T4 chain: PLXXRL
# T5: Ac-PL-NLys˜Hphe-L-Ahxh-Ac[C14] (not fully specified)
# T5 chain: PLXXL
# T6: Ac-PLG˜L-Cha-Ahxh-Ac[C14] (not fully specified)
# T6 chain: PLGLX
# T7: Ac-PLG˜LY-Ahxh-Ac[C14] (not fully specified)
# T7 chain: PLGLY
# T8: Ac-PLG˜Ahp-OL-Ahxh-Ac[C14] (not fully specified)
# T8 chain: PLGXXL
# T9: H-DArg-P-Cit-G˜cLeu-LA-Ahxh-Hynic (not fully specified)
# T9 chain: RPXGXLA
# T10: Ac-P-Cit-G˜Aib-LA-Ahxh-Hynic (not fully specified)
# T10 chain: PXGXLA
# T11: Ac-POG˜Hphe-LQ-Ahxh-Hynic
# T11 chain: PXGXLQ
# T12: Ac-PLG˜L-Cha-Ahxh-Hynic
# T12 chain: PLGLX
# T13: Ac-PR-Cit˜LSA-Ahxh-Hynic
# T13 chain: PRXLSA
# T14: Ac-PLG˜Hphe-K(Me)2-L-Ahxh-Hynic (not fully specified)
# T14 chain: PLGXKL
# T15: Ac-PLG˜LOL-Ahxh-Hynic (not fully specified)
# T15 chain: PLGLXL
# T16: Ac-P-O(Me)2-G˜Hphe-L-Nle-Ahxh-Hynic (not fully specified)
# T16 chain: PXGXLX
# T17: Ac-P-Cit-G˜Hphe-Cit-L-Ahxh-Hynic (not fully specified)
# T17 chain: PXGXXL
# T18: Ac-PLG˜Hphe-KL-Ahxh-Ac[C14] (not fully specified)
# T18 chain: PLGXKL
# T19: Ac-P-Cit-G˜Hphe-LA-Ahxh-Hynic (not fully specified)
# T19 chain: PXGXLA
# T20: Ac-PLG˜LWA-Ahxh-Ac[C14] (not fully specified)
# T20 chain: PLGLWA
# T21: Ac-NLys-PLG˜Hphe-RLA-Ahxh-Hynic (not fully specified)
# T21 chain: XPLGXRLA
# T22: NLys-NLys-PLG˜Hphe-YL-Ahxh-Hynic
# T22 chain: XXPLGXYL
# T23: Ac-PLG˜Hphe-Cit-L-Ahxh-Hynic (not fully specified)
# T23 chain: PLGXXL
# T24: Ac-Inp-Cit-G˜Hphe-LA-Ahxh-Hynic (not fully specified)
# T24 chain: XXGXLA
# T25: Ac-P-Cit-G˜Hphe-L-Ahxh-Hynic (not fully specified)
# T25 chain: PXGXL
# T26: Ac-PRG˜Hphe-Dab-A-Ahxh-Hynic
# T26 chain: PRGXXA
# T27: Ac-NGlu-POG˜Hphe-L-Hynic (not fully specified)
# T27 chain: XPXGXL
# T28: Ac-Hpro-Cit-G˜Hphe-TA-Ahxh-Hynic (not fully specified)
# T28 chain: XXGXTA
# T29: Ac-PLG˜Ahp-YL-Ahxh-Ac[C14] (not fully specified)
# T29 chain: PLGXYL
# T30: Ac-PLG˜Hphe-YL-Ambh-Hynic
# T30 chain: PLGXYL
# T31: Ac-PLG˜LL-Ambh-Hynic
# T31 chain: PLGLL
# T32: Ac-P-Cit-G˜Abu-LA-Ahxh-Hynic (not fully specified)
# T32 chain: PXGXLA
# T33: Ac-PLG-Hphe-OL-Ahxh-Ac[C14]
# T33 chain: PLGXXL
# T34: Ac-P-Cit-G˜Igl-LA-Ahxh-Hynic (not fully specified)
# T34 chain: PXGXLA
# T35: Ac-PLG˜Hphe-OLA-Ahxh-Hynic
# T35 chain: PLGXXLA
# T36: Ac-Tic-Cit-G˜Hphe-SA-Ahxh-Hynic
# T36 chain: XXGXSA
# T37: Ac-NLys-PLG˜LL-Ahxh-Hynic (not fully specified)
# T37 chain: XPLGLL
# T38: Ac-P-Cit-G˜Tle-LA-Ahxh-Hynic (not fully specified)
# T38 chain: PXGXLA
# T39: Ac-PLG˜S(OBn)-LL-Ahxh-Hynic
# T39 chain: PLGSLL
# T40: Ac-P-Cit-G˜Hphe-Cha-A-Ahxh-Ac[C14] (not fully specified)
# T40 chain: PXGXXA
# T41: H-NLys-PLG˜LYT-Ahxh-Hynic (not fully specified)
# T41 chain: XPLGLYT
# T42: Ac-Oic-LG˜LL-Ahxh-Ac[C14] (not fully specified)
# T42 chain: XLGLL
# T43: Ac-PL-NLys-LL-NHNH-Ac[C14]
# T43 chain: PLXLL
# T44: Ac-POG˜Hphe-LTR-Ahxh-Ac[C14]
# T44 chain: PXGXLTR
# T45: Ac-PLG˜Hphe-R-Ahxh-Ac[C14] (not fully specified)
# T45 chain: PLGXR
# T46: Ac-POG˜Hphe-L-Hynic
# T46 chain: PXGXL
# T47: Ac-Csa-PLG˜Hphe-YL-Ambh-Hynic (not fully specified)
# T47 chain: XPLGXYL
# T48: Ac-P-Cit-G-Hphe-LA-Hynic
# T48 chain: PXGXLA
# T49: Ac-PL-NLys˜LL-Ambh-Ac[C14] (not fully specified)
# T49 chain: PLXLL
# T50: Suc-PLG˜LYT-Ahxh-Hynic
# T50 chain: PLGLYT
# T51: Ac-VRW˜LLA-Ahxh-Hynic
# T51 chain: VRWLLA
# B1: human MMP-9 (protein)
# chain: MRTPRCGVPDLGRFQTFEGDLKWHHHNITYWIQNYSEDLPRAVIDDAFARAFALWSAVTPLTFTRVYSRDADIVIQFGVAEHGDGYPFDGKDGLLAHAFPPGPGIQGDAHFDDDELWSLGKGVVVPTRFGNADGAACHFPFIFEGRSYSACTTDGRSDGLPWCSTTANYDTDDRFGFCPSERLYTQDGNADGKPCQFPFIFQGQSYSACTTDGRSDGYRWCATTANYDRDKLFGFCPTRADSTVMGGNSAGELCVFPFTFLGKEYSTCTSEGRGDGRLWCATTSNFDSDKKWGFCPDQGYSLFLVAAHEFGHALGLDHSSVPEALMYPMYRFTEGPPLHKDDVNGIRHLYGPRPEPEPRPPTTTTPQPTAPPTVCPTGPPTVHPSERPTAGPTGPPSAGPTGPPTAGPSTATTVPLSPVDDACNVNIFDAIAEIGNQLYLFKDGKYWRFSEGRGSRPQGPFLIADKWPALPRKLDSVFEERLSKKLFFFSGRQVWVYTGASVLGPRRLDKLGLGADVAQVTGALRSGRGKMLLFSGRRLWRFDVKAQMVDPRSASEVDRMFPGVPLDTHDVFQYREKAYFCQDRFYWRVSSRSELNQVDQVGYVTYDILQCPED
# What was measured:
# Ac-PLG˜LYT-Ahxh-Hynic = target: T1, Ac-PLG˜LYT-Ahxh-Hynic
# [1] = target: T2, Ac-PLG˜Hphe-YLA-Ahxh-Hynic
# [2] = target: T3, Ac-PLG˜Hphe-YL-Ahxh-Hynic
# [3] = target: T4, Ac-PL-NLys˜Hphe-RL-Ahxh-Ac[C14]
# [4] = target: T5, Ac-PL-NLys˜Hphe-L-Ahxh-Ac[C14]
# [5] = target: T6, Ac-PLG˜L-Cha-Ahxh-Ac[C14]
# Ac-PLG˜LY-Ahxh-Ac[C14] = target: T7, Ac-PLG˜LY-Ahxh-Ac[C14]
# [6] = target: T8, Ac-PLG˜Ahp-OL-Ahxh-Ac[C14]
# [7] = target: T9, H-DArg-P-Cit-G˜cLeu-LA-Ahxh-Hynic
# [8] = target: T10, Ac-P-Cit-G˜Aib-LA-Ahxh-Hynic
# [9] = target: T11, Ac-POG˜Hphe-LQ-Ahxh-Hynic
# Ac-PLG˜L-Cha-Ahxh-Hynic = target: T12, Ac-PLG˜L-Cha-Ahxh-Hynic
# Ac-PR-Cit˜LSA-Ahxh-Hynic = target: T13, Ac-PR-Cit˜LSA-Ahxh-Hynic
# [10] = target: T14, Ac-PLG˜Hphe-K(Me)2-L-Ahxh-Hynic
# Ac-PLG˜LOL-Ahxh-Hynic = target: T15, Ac-PLG˜LOL-Ahxh-Hynic
# [11] = target: T16, Ac-P-O(Me)2-G˜Hphe-L-Nle-Ahxh-Hynic
# [12] = target: T17, Ac-P-Cit-G˜Hphe-Cit-L-Ahxh-Hynic
# [13] = target: T18, Ac-PLG˜Hphe-KL-Ahxh-Ac[C14]
# [14] = target: T19, Ac-P-Cit-G˜Hphe-LA-Ahxh-Hynic
# Ac-PLG˜LWA-Ahxh-Ac[C14] = target: T20, Ac-PLG˜LWA-Ahxh-Ac[C14]
# [15] = target: T21, Ac-NLys-PLG˜Hphe-RLA-Ahxh-Hynic
# [16] = target: T22, NLys-NLys-PLG˜Hphe-YL-Ahxh-Hynic
# [17] = target: T23, Ac-PLG˜Hphe-Cit-L-Ahxh-Hynic
# [18] = target: T24, Ac-Inp-Cit-G˜Hphe-LA-Ahxh-Hynic
# [19] = target: T25, Ac-P-Cit-G˜Hphe-L-Ahxh-Hynic
# [20] = target: T26, Ac-PRG˜Hphe-Dab-A-Ahxh-Hynic
# Ac-NGlu-POG˜Hphe-L-Hynic = target: T27, Ac-NGlu-POG˜Hphe-L-Hynic
# [21] = target: T28, Ac-Hpro-Cit-G˜Hphe-TA-Ahxh-Hynic
# [22] = target: T29, Ac-PLG˜Ahp-YL-Ahxh-Ac[C14]
# [23] = target: T30, Ac-PLG˜Hphe-YL-Ambh-Hynic
# Ac-PLG˜LL-Ambh-Hynic = target: T31, Ac-PLG˜LL-Ambh-Hynic
# [24] = target: T32, Ac-P-Cit-G˜Abu-LA-Ahxh-Hynic
# [25] = target: T33, Ac-PLG-Hphe-OL-Ahxh-Ac[C14]
# [26] = target: T34, Ac-P-Cit-G˜Igl-LA-Ahxh-Hynic
# [27] = target: T35, Ac-PLG˜Hphe-OLA-Ahxh-Hynic
# [28] = target: T36, Ac-Tic-Cit-G˜Hphe-SA-Ahxh-Hynic
# [29] = target: T37, Ac-NLys-PLG˜LL-Ahxh-Hynic
# [30] = target: T38, Ac-P-Cit-G˜Tle-LA-Ahxh-Hynic
# [31] = target: T39, Ac-PLG˜S(OBn)-LL-Ahxh-Hynic
# [32] = target: T40, Ac-P-Cit-G˜Hphe-Cha-A-Ahxh-Ac[C14]
# [33] = target: T41, H-NLys-PLG˜LYT-Ahxh-Hynic
# [34] = target: T42, Ac-Oic-LG˜LL-Ahxh-Ac[C14]
# [35] = target: T43, Ac-PL-NLys-LL-NHNH-Ac[C14]
# [36] = target: T44, Ac-POG˜Hphe-LTR-Ahxh-Ac[C14]
# [37] = target: T45, Ac-PLG˜Hphe-R-Ahxh-Ac[C14]
# Ac-POG˜Hphe-L-Hynic = target: T46, Ac-POG˜Hphe-L-Hynic
# [38] = target: T47, Ac-Csa-PLG˜Hphe-YL-Ambh-Hynic
# Ac-P-Cit-G-Hphe-LA-Hynic = target: T48, Ac-P-Cit-G-Hphe-LA-Hynic
# [39] = target: T49, Ac-PL-NLys˜LL-Ambh-Ac[C14]
# Suc-PLG˜LYT-Ahxh-Hynic = target: T50, Suc-PLG˜LYT-Ahxh-Hynic
# Ac-VRW˜LLA-Ahxh-Hynic = target: T51, Ac-VRW˜LLA-Ahxh-Hynic
protein,measurement,setting,value
B1,Kcat/Km,Ac-PLG˜LYT-Ahxh-Hynic,223000 M⁻¹ s⁻¹
same,Kcat/Km,[1],201000 M⁻¹ s⁻¹
same,Kcat/Km,[2],> 100000 M⁻¹ s⁻¹
same,Kcat/Km,[3],114000 M⁻¹ s⁻¹
same,Kcat/Km,[4],289000 M⁻¹ s⁻¹
same,Kcat/Km,[5],475000 M⁻¹ s⁻¹
same,Kcat/Km,Ac-PLG˜LY-Ahxh-Ac[C14],336000 M⁻¹ s⁻¹
same,Kcat/Km,[6],9340 M⁻¹ s⁻¹
same,Kcat/Km,[7],0 M⁻¹ s⁻¹
same,Kcat/Km,[8],772 M⁻¹ s⁻¹
same,Kcat/Km,[9],84800 M⁻¹ s⁻¹
same,Kcat/Km,Ac-PLG˜L-Cha-Ahxh-Hynic,147000 M⁻¹ s⁻¹
same,Kcat/Km,Ac-PR-Cit˜LSA-Ahxh-Hynic,40100 M⁻¹ s⁻¹
same,Kcat/Km,[10],55000 M⁻¹ s⁻¹
same,Kcat/Km,Ac-PLG˜LOL-Ahxh-Hynic,39400 M⁻¹ s⁻¹
same,Kcat/Km,[11],27000 M⁻¹ s⁻¹
same,Kcat/Km,[12],11400 M⁻¹ s⁻¹
same,Kcat/Km,[13],120000 M⁻¹ s⁻¹
same,Kcat/Km,[14],584000 M⁻¹ s⁻¹
same,Kcat/Km,Ac-PLG˜LWA-Ahxh-Ac[C14],> 750000 M⁻¹ s⁻¹
same,Kcat/Km,[15],373000 M⁻¹ s⁻¹
same,Kcat/Km,[16],33800 M⁻¹ s⁻¹
same,Kcat/Km,[17],171000 M⁻¹ s⁻¹
same,Kcat/Km,[18],1650 M⁻¹ s⁻¹
same,Kcat/Km,[19],33300 M⁻¹ s⁻¹
same,Kcat/Km,[20],474000 M⁻¹ s⁻¹
same,Kcat/Km,Ac-NGlu-POG˜Hphe-L-Hynic,613 M⁻¹ s⁻¹
same,Kcat/Km,[21],160000 M⁻¹ s⁻¹
same,Kcat/Km,[22],60400 M⁻¹ s⁻¹
same,Kcat/Km,[23],190000 M⁻¹ s⁻¹
same,Kcat/Km,Ac-PLG˜LL-Ambh-Hynic,36300 M⁻¹ s⁻¹
same,Kcat/Km,[24],20600 M⁻¹ s⁻¹
same,Kcat/Km,[25],77500 M⁻¹ s⁻¹
same,Kcat/Km,[26],0 M⁻¹ s⁻¹
same,Kcat/Km,[27],14100 M⁻¹ s⁻¹
same,Kcat/Km,[28],1880 M⁻¹ s⁻¹
same,Kcat/Km,[29],83200 M⁻¹ s⁻¹
same,Kcat/Km,[30],0 M⁻¹ s⁻¹
same,Kcat/Km,[31],187000 M⁻¹ s⁻¹
same,Kcat/Km,[32],> 500000 M⁻¹ s⁻¹
same,Kcat/Km,[33],149000 M⁻¹ s⁻¹
same,Kcat/Km,[34],0 M⁻¹ s⁻¹
same,Kcat/Km,[35],138000 M⁻¹ s⁻¹
same,Kcat/Km,[36],246000 M⁻¹ s⁻¹
same,Kcat/Km,[37],> 500000 M⁻¹ s⁻¹
same,Kcat/Km,Ac-POG˜Hphe-L-Hynic,4450 M⁻¹ s⁻¹
same,Kcat/Km,[38],41600 M⁻¹ s⁻¹
same,Kcat/Km,Ac-P-Cit-G-Hphe-LA-Hynic,> 250000 M⁻¹ s⁻¹
same,Kcat/Km,[39],88000 M⁻¹ s⁻¹
same,Kcat/Km,Suc-PLG˜LYT-Ahxh-Hynic,81000 M⁻¹ s⁻¹
same,Kcat/Km,Ac-VRW˜LLA-Ahxh-Hynic,72200 M⁻¹ s⁻¹
